Experimental data taken from patent US20260217797A1.

Columns and labels:
[1] = target: SARS-CoV-2 B.1.1.7 N501Y (Alpha) RBD (SARS-CoV-2) (UniProt P0DTC2); assay: Octet BLI single point, monovalent
[2] = target: SARS-CoV-2 L452R RBD (Epsilon) (SARS-CoV-2) (UniProt P0DTC2); assay: Octet BLI single point, monovalent

Substance: RGN10987 (antibody)
- Kd [1]: 15.1 nM
- Kd [2]: 17.4 nM

Substance: RGN10933 (antibody)
- Kd [1]: 6.57 nM
- Kd [2]: 9.52 nM
